Source: the Human Domainome abundance scans (Beltran et al. 2025)
± gives the uncertainty stated by the source.

B1: Zinc finger homeobox protein 3, residues 2147 to 2202; numbered along this chain, Q15911 (parent)
chain: RPRTRITDDQLRVLRQYFDINNSPSEEQIKEMADKSGLPQKVIKHWFRNTLFKERQ

Variants of: B1
Test: abundance fitness (aPCA) (normalised: wild type 0, dead -1); higher = more abundant; growth selection in yeast, the domain comes from the species named
Conditions: Homo sapiens

With RPRTRITDDQLRVLRQYFDINNSPSEEQIKEMADKSGLPMKVIKHWFRNTLFKERQ [Q40M] as the variant, how does the abundance fitness read?
Its abundance fitness is -0.103 ± 0.11.

Which abundance fitness does the source give for RPRTRITDDQLRVLRQYFDINNSPSEEQIKEMADKSGLPGKVIKHWFRNTLFKERQ [Q40G] here?
Its abundance fitness is -0.073 ± 0.074.

For RPRTRITDDQLRVLRQYFDINNSPSEEQIKEMADKSGLPHKVIKHWFRNTLFKERQ [Q40H], which abundance fitness is on record?
Its abundance fitness is 0.025 ± 0.18.

Which abundance fitness does the source give for RPRTRITDDQLRVLRQYFDINNSPSEEQIKEMADKSGLPSKVIKHWFRNTLFKERQ [Q40S] here?
Its abundance fitness is 0.014 ± 0.091.

For RPRTRITDDQLRVLRQYFDINNSPSEEQIKEMADKSGLPEKVIKHWFRNTLFKERQ [Q40E], which abundance fitness is on record?
Its abundance fitness is 0.105 ± 0.13.

For RPRTRITDDQLRVLRQYFDINNSPSEEQIKEMADKSGLPRKVIKHWFRNTLFKERQ [Q40R], which abundance fitness is on record?
Its abundance fitness is 0.022 ± 0.071.

For RPRTRITDDQLRVLRQYFDINNSPSEEQIKEMADKSGLPLKVIKHWFRNTLFKERQ [Q40L], which abundance fitness is on record?
The abundance fitness was 0.072 ± 0.083.

With RPRTRITDDQLRVLRQYFDINNSPSEEQIKEMADKSGLPCKVIKHWFRNTLFKERQ [Q40C] as the variant, how does the abundance fitness read?
Its abundance fitness is -0.118 ± 0.11.

For RPRTRITDDQLRVLRQYFDINNSPSEEQIKEMADKSGLPPKVIKHWFRNTLFKERQ [Q40P], which abundance fitness is on record?
Its abundance fitness is 0.121 ± 0.1.

With RPRTRITDDQLRVLRQYFDINNSPSEEQIKEMADKSGLPIKVIKHWFRNTLFKERQ [Q40I] as the variant, how does the abundance fitness read?
Its abundance fitness is -0.162 ± 0.15.

Which abundance fitness does the source give for RPRTRITDDQLRVLRQYFDINNSPSEEQIKEMADKSGLPKKVIKHWFRNTLFKERQ [Q40K] here?
The abundance fitness was 0.193 ± 0.12.

Which abundance fitness does the source give for RPRTRITDDQLRVLRQYFDINNSPSEEQIKEMADKSGLPTKVIKHWFRNTLFKERQ [Q40T] here?
The abundance fitness was 0.054 ± 0.099.

For RPRTRITDDQLRVLRQYFDINNSPSEEQIKEMADKSGLPFKVIKHWFRNTLFKERQ [Q40F], which abundance fitness is on record?
Its abundance fitness is -0.172 ± 0.23.

Which abundance fitness does the source give for RPRTRITDDQLRVLRQYFDINNSPSEEQIKEMADKSGLPNKVIKHWFRNTLFKERQ [Q40N] here?
The abundance fitness was 0.102 ± 0.31.

Which abundance fitness does the source give for RPRTRITDDQLRVLRQYFDINNSPSEEQIKEMADKSGLPDKVIKHWFRNTLFKERQ [Q40D] here?
Its abundance fitness is -0.06 ± 0.19.

With RPRTRITDDQLRVLRQYFDINNSPSEEQIKEMADKSGLPVKVIKHWFRNTLFKERQ [Q40V] as the variant, how does the abundance fitness read?
The abundance fitness was -0.046 ± 0.084.

With RPRTRITDDQLRVLRQYFDINNSPSEEQIKEMADKSGLRQKVIKHWFRNTLFKERQ [P39R] as the variant, how does the abundance fitness read?
Its abundance fitness is -0.156 ± 0.082.

With RPRTRITDDQLRVLRQYFDINNSPSEEQIKEMADKSGLEQKVIKHWFRNTLFKERQ [P39E] as the variant, how does the abundance fitness read?
The abundance fitness was 0.009 ± 0.082.

Which abundance fitness does the source give for RPRTRITDDQLRVLRQYFDINNSPSEEQIKEMADKSGLQQKVIKHWFRNTLFKERQ [P39Q] here?
The abundance fitness was -0.167 ± 0.11.

With RPRTRITDDQLRVLRQYFDINNSPSEEQIKEMADKSGLIQKVIKHWFRNTLFKERQ [P39I] as the variant, how does the abundance fitness read?
The abundance fitness was -0.199 ± 0.16.

With RPRTRITDDQLRVLRQYFDINNSPSEEQIKEMADKSGLSQKVIKHWFRNTLFKERQ [P39S] as the variant, how does the abundance fitness read?
The abundance fitness was 0.045 ± 0.08.

For RPRTRITDDQLRVLRQYFDINNSPSEEQIKEMADKSGLTQKVIKHWFRNTLFKERQ [P39T], which abundance fitness is on record?
The abundance fitness was -0.031 ± 0.099.

Which abundance fitness does the source give for RPRTRITDDQLRVLRQYFDINNSPSEEQIKEMADKSGLWQKVIKHWFRNTLFKERQ [P39W] here?
The abundance fitness was -0.564 ± 0.1.

For RPRTRITDDQLRVLRQYFDINNSPSEEQIKEMADKSGLLQKVIKHWFRNTLFKERQ [P39L], which abundance fitness is on record?
The abundance fitness was -0.329 ± 0.078.

With RPRTRITDDQLRVLRQYFDINNSPSEEQIKEMADKSGLDQKVIKHWFRNTLFKERQ [P39D] as the variant, how does the abundance fitness read?
The abundance fitness was -0.015 ± 0.14.

Which abundance fitness does the source give for RPRTRITDDQLRVLRQYFDINNSPSEEQIKEMADKSGLYQKVIKHWFRNTLFKERQ [P39Y] here?
Its abundance fitness is -0.284 ± 0.34.

For RPRTRITDDQLRVLRQYFDINNSPSEEQIKEMADKSGLAQKVIKHWFRNTLFKERQ [P39A], which abundance fitness is on record?
Its abundance fitness is -0.068 ± 0.078.

With RPRTRITDDQLRVLRQYFDINNSPSEEQIKEMADKSGLHQKVIKHWFRNTLFKERQ [P39H] as the variant, how does the abundance fitness read?
Its abundance fitness is -0.079 ± 0.18.

For RPRTRITDDQLRVLRQYFDINNSPSEEQIKEMADKSGLMQKVIKHWFRNTLFKERQ [P39M], which abundance fitness is on record?
The abundance fitness was -0.258 ± 0.097.

For RPRTRITDDQLRVLRQYFDINNSPSEEQIKEMADKSGLVQKVIKHWFRNTLFKERQ [P39V], which abundance fitness is on record?
The abundance fitness was -0.119 ± 0.079.

With RPRTRITDDQLRVLRQYFDINNSPSEEQIKEMADKSGLCQKVIKHWFRNTLFKERQ [P39C] as the variant, how does the abundance fitness read?
Its abundance fitness is -0.192 ± 0.15.

With RPRTRITDDQLRVLRQYFDINNSPSEEQIKEMADKSGLFQKVIKHWFRNTLFKERQ [P39F] as the variant, how does the abundance fitness read?
Its abundance fitness is -0.746 ± 0.22.

With RPRTRITDDQLRVLRQYFDINNSPSEEQIKEMADKSGLNQKVIKHWFRNTLFKERQ [P39N] as the variant, how does the abundance fitness read?
Its abundance fitness is -0.249 ± 0.22.

With RPRTRITDDQLRVLRQYFDINNSPSEEQIKEMADKSGLGQKVIKHWFRNTLFKERQ [P39G] as the variant, how does the abundance fitness read?
Its abundance fitness is -0.016 ± 0.068.

Which abundance fitness does the source give for RPRTRITDDQLRVLRQYFDINNSPSEEQIKEMADKSGNPQKVIKHWFRNTLFKERQ [L38N] here?
The abundance fitness was -1.15 ± 0.28.

Which abundance fitness does the source give for RPRTRITDDQLRVLRQYFDINNSPSEEQIKEMADKSGIPQKVIKHWFRNTLFKERQ [L38I] here?
The abundance fitness was -0.124 ± 0.22.

With RPRTRITDDQLRVLRQYFDINNSPSEEQIKEMADKSGHPQKVIKHWFRNTLFKERQ [L38H] as the variant, how does the abundance fitness read?
Its abundance fitness is -1.1 ± 0.38.

With RPRTRITDDQLRVLRQYFDINNSPSEEQIKEMADKSGVPQKVIKHWFRNTLFKERQ [L38V] as the variant, how does the abundance fitness read?
Its abundance fitness is -0.008 ± 0.08.

For RPRTRITDDQLRVLRQYFDINNSPSEEQIKEMADKSGKPQKVIKHWFRNTLFKERQ [L38K], which abundance fitness is on record?
Its abundance fitness is -1.04 ± 0.15.

Which abundance fitness does the source give for RPRTRITDDQLRVLRQYFDINNSPSEEQIKEMADKSGRPQKVIKHWFRNTLFKERQ [L38R] here?
Its abundance fitness is -0.971 ± 0.077.

With RPRTRITDDQLRVLRQYFDINNSPSEEQIKEMADKSGQPQKVIKHWFRNTLFKERQ [L38Q] as the variant, how does the abundance fitness read?
The abundance fitness was -0.649 ± 0.13.

With RPRTRITDDQLRVLRQYFDINNSPSEEQIKEMADKSGTPQKVIKHWFRNTLFKERQ [L38T] as the variant, how does the abundance fitness read?
The abundance fitness was -0.449 ± 0.12.

With RPRTRITDDQLRVLRQYFDINNSPSEEQIKEMADKSGGPQKVIKHWFRNTLFKERQ [L38G] as the variant, how does the abundance fitness read?
Its abundance fitness is -0.857 ± 0.075.

Which abundance fitness does the source give for RPRTRITDDQLRVLRQYFDINNSPSEEQIKEMADKSGMPQKVIKHWFRNTLFKERQ [L38M] here?
The abundance fitness was -0.302 ± 0.11.

Which abundance fitness does the source give for RPRTRITDDQLRVLRQYFDINNSPSEEQIKEMADKSGYPQKVIKHWFRNTLFKERQ [L38Y] here?
The abundance fitness was -1.05 ± 0.33.

For RPRTRITDDQLRVLRQYFDINNSPSEEQIKEMADKSGPPQKVIKHWFRNTLFKERQ [L38P], which abundance fitness is on record?
Its abundance fitness is -0.858 ± 0.13.

Which abundance fitness does the source give for RPRTRITDDQLRVLRQYFDINNSPSEEQIKEMADKSGSPQKVIKHWFRNTLFKERQ [L38S] here?
The abundance fitness was -0.712 ± 0.095.
